In the supplement of paper PMC9170038:

System: MS2 coat protein
Experiment: apparent KD of MS2 coat protein; designed switch direction (-1 OFF switch, 1 ON switch): 1; higher = weaker reporter binding
In short: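 Stalled E. coli RNA polymerase transcribed designed RNA switches on Illumina chips, which were then titrated with SNAP-549-labelled MS2 coat protein, doubling from 0.7 or 1.5 nM to 3 µM. Steps lasted from 0.8–1.5 h at the lowest concentration to 10–20 min at the highest. The apparent KD is each design's median over clusters of curve-fitted normalised fluorescence.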

[1] = input ligand: microRNA oligo, concentration not stated
[2] = Eterna round: R95, input ligand: FMN 200 uM
[3] = Eterna round: R95, input ligand: microRNA oligo, concentration not stated
[4] = Eterna round: R95, input ligand: none

Sequence | apparent KD of MS2 coat protein (input ligand: FMN 200 uM) | apparent KD of MS2 coat protein [1] | apparent KD of MS2 coat protein (input ligand: none) | apparent KD of MS2 coat protein [2] | apparent KD of MS2 coat protein [3] | apparent KD of MS2 coat protein [4]
GGCGAAGGAGAAGGAUAUAUCUUGGACAUAUAGAUGCACAUGAGGAUCACCCAUGUCAUCAUGGGAUAGAAGGUCUGCUUCACC [Eternabot solution 33] (Eterna round: R96, puzzle: Same State NG 2) | 13.2 nM | 10.3 nM | 14.2 nM |  |  | 
CCUUGUAGCGGAGGAUAUGGGCCUCACUCAGUCAAAGAGUGAGAAACAUGAGGAUCACCCAUGUCCCAGAAGGCCGCUGCAUGG [Ridizaer] (Eterna round: R96, puzzle: Same State NG 2) | 12.1 nM | 13.8 nM | 19.1 nM |  |  | 
UGGCUCAGACGAGGAUAUACGUGGUCACAUGAGGAUCACCCAUGUCUCGAGCUUCGGCUCGAGGCGUAGAAGGUGUCUGAGCCA [SSNG2/6-C2] (Eterna round: R96, puzzle: Same State NG 2) | 192 nM | 609 nM | 575 nM |  |  | 
CUGCGUAACACAGGAUAUACCUCCGCAAGGAACGUAGAAGGGUGAGUAGCAGACAUGAGGAUCACCCAUGUAAAGGCCAAGGCC [Enqudiso] (Eterna round: R96, puzzle: Same State NG 1) | 48.4 nM | 95.7 nM | 98 nM |  |  | 
UCUUGGUUUUUGCUCGUUUUUUGUGUUGAACAUGAGGAUCACCCAUGUAUUGUACGGUCCAAUUUAAUAAUAAUCCG [JMF 64] (puzzle: Sensor for hsa-mir-208a) |  |  |  | 28.8 nM | 21.9 nM | 30.6 nM
AAAGCACAUGAGGAUCACCCAUGUGGAAAUAACACAGGAUAUCCGGCCGAAAAUACGGUGGGAGAAGGGUGACCUA [Inxetemama] (puzzle: Same State 1) |  |  |  | 302 nM | 60.4 nM | 86.7 nM
CUGAGAUGUCAAGGAUAUCACGUCGAUUAGACGUGAGAAGGUGAUCUGCACAUGAGGAUCACCCAUGUGUUACAUGGAAUUCAG [Brourd's SSNG1/1-A2 mod 12] (Eterna round: R96, puzzle: Same State NG 1) | 567 nM | 278 nM | 889 nM |  |  | 
GUAGAAUAACUAGAGGAUAUCCGAGUGGUAACAUGAGGAUCACCCAUGUGAUGAAAGGAACAUGAGGAGAAGGCUAGAAGUAAUG [Mat - Same State 2 - Mod of JL - D81] (puzzle: Same State 2) |  |  |  | 17.5 nM | 61.1 nM | 48.1 nM
UUUAGAUAGCGAGGAUAUCGCGAGGAUCACCCGUGAGAAGGCGCAGAGCCGAGGAUCACCCGGCUGAUCCUGAGAAGGAGGUCA (Eterna round: R96, puzzle: Same State NG 1) | 92.3 nM | 155 nM | 245 nM |  |  | 
ACAUGAGACUCAGGAUAUGGUGUACCUACAUGUGACAUGAGGAUCACCCAUGUGGUAAGUAUGACUCAGAAGGGAGAGAUAUGU [Equivalance 76 - Jieux - Same State NG 2] (Eterna round: R96, puzzle: Same State NG 2) | 37.4 nM | 116 nM | 171 nM |  |  | 
UGAAUAGUUACAGGAUAUGAGUUGUAAAUUGGGUCAGAAGGGUGGGUGUUCUGCGCGGUGUGUUACAUGAGGAUCACCCAUGUU [SameState NG1 #29] (Eterna round: R96, puzzle: Same State NG 1) | 504 nM | 182 nM | 377 nM |  |  | 
AGUCCAGCCUGAGCUGGACAAAAGCAUGUACAUGAGGAUCACCCAUGUCAUGUACAAGCUUUUUGCUCGUCUAAAAU [Mat - hsa-mir-208a - Mod of JL - D6] (puzzle: Sensor for hsa-mir-208a) |  |  |  | 430 nM | 16.3 nM | 675 nM
GGAGCCAGCACCGAGGAUAUUCAUAUUAAAACAUGAGGAUCACCCAUGUAGGCCAGAAGGCCUUGGGAGAAGGCGGAUUGGCUCG [Xeonanis - 10] (puzzle: Same State 2) |  |  |  | 35.3 nM | 327 nM | 496 nM
GUUACAUGAGGAUCACCCAUGUAUGUGUGGGAGUAAGUGUCUUAGGAUAUCUAUCAUUUAAUUCAAGAGAAGGAAGAUUGUUGU [JMF's solution 100] (Eterna round: R96, puzzle: Same State NG 3) | 126 nM | 96.1 nM | 103 nM |  |  | 
UGUACCUUCACAGGAUAUCAUGCGAAAAUUGCGUGAGAAGGGUGAAUACUGUGUUAAUAAAAGCACAUGAGGAUCACCCAUGUA [SameState NG1 #57] (Eterna round: R96, puzzle: Same State NG 1) | 392 nM | 12.7 nM | 43.4 nM |  |  | 
UGCCUGAGUCGAGGAUAUUAUGGAUCCUCUAAUACAUGAGGAUCACCCAUGUAAUUAAUUAUACAUGAGAAGGUGACUCAGGCU [SSNG2/12-B1] (Eterna round: R96, puzzle: Same State NG 2) |  | 293 nM |  |  |  | 

Sequence | apparent KD of MS2 coat protein (input ligand: FMN 200 uM) | apparent KD of MS2 coat protein [1] | apparent KD of MS2 coat protein (input ligand: none) | apparent KD of MS2 coat protein [2] | apparent KD of MS2 coat protein [3] | apparent KD of MS2 coat protein [4]
UUGAAGAAUUAAGGAUAUUGAAUACAUAUGUUUAACAUGAGGAUCACCCAUGUGGGUUGCGGUAUCGAGAAGGUAAAUAAAUAG [Mat - Same State NG 2 - JL mod - D3] (Eterna round: R96, puzzle: Same State NG 2) | 169 nM | 110 nM | 159 nM |  |  | 
UUUACUUUCAUAGGAUAUCAUGCGAAAAUUGCGUGAGAAGGGUGAACACUGUCUUUCUAAGAGUACAUGAGGAUCACCCAUGUA [SameState NG1 #65] (Eterna round: R96, puzzle: Same State NG 1) | 113 nM | 102 nM | 131 nM |  |  | 
CCCAGGCAUGGAGGAUAUGGGAACAUGAGGAUCACCCAUGUUAACUCCGUAGGCGGCUUAAGGCACCAGAAGGCUACGGCUGGU [Eternabot solution 15] (Eterna round: R96, puzzle: Same State NG 2) | 112 nM | 67.8 nM | 83 nM |  |  | 
GCUCGAUGUGUUGUCUACAUGAGGAUCACCCAUGUAGAUGCGGAGGAUAUCUACGUGCUUUAUGUAGAGAAGGUCGUAUCGAGC [SameState NG3 #85] (Eterna round: R96, puzzle: Same State NG 3) | 18 nM | 23.7 nM | 34.3 nM |  |  | 
GGAGCCGACACUGAGGAUAUUCAUAUUAAAACAUGAGGAUCACCCAUGUAGGCCAGAAGGCCUUGGGAGAAGGCAGGUCGGCCCG [Bibimoar - 2] (puzzle: Same State 2) |  |  |  | 15.9 nM | 331 nM | 294 nM
UUGCGCUGUCGAGAGGAUAUGCGGUGUUGGACAUGAGGAUCACCCAUGUUAGCGAUAGCAUUACGGUAGAAGGCUCUUCAGCUGC [salish99_ss2_r3_096] (puzzle: Same State 2) |  |  |  | 23.4 nM | 17 nM | 21.9 nM
GCGAGCGUACUUGCAACAUGAGGAUCACCCAUGUUAACUGGACAGGAUAUGGUACCGUUUCGGUACCAGAAGGGUUUAUCAUGU [JL SSNG3 3.66] (Eterna round: R96, puzzle: Same State NG 3) | 92.3 nM | 92.8 nM | 116 nM |  |  | 
GAAGGAUGAGCGUAGGAUAUAGGAGGAGUGACAUGAGGAUCACCCAUGUAGUAAGAGGGAGGGUACUAGAAGGACGAGGAAGAAG [JR_SS2_Sub066] (puzzle: Same State 2) |  |  |  | 602 nM | 6 nM | 16.3 nM
GAGGAUGAUUUACAGGAUAUAUAGAAGAUGACAUGAGGAUCACCCAUGUAAGAGAAAGGAGGGAGAUAGAAGGGUAAGGGAUGUG [JR_SS2_Sub40] (puzzle: Same State 2) |  |  |  | 37.2 nM | 24.5 nM | 42.3 nM
AAAGAACAUGAGGAUCACCCAUGUGGAAGAGGCACAGGAUAUCACCUCGCACGUGCGAGGUGAGAAGGGUGAUGGU [Zalecema] (puzzle: Same State 1) |  |  |  | 122 nM | 80.7 nM | 128 nM
AUUAAACAUGAGGAUCACCCAUGUCAACAAAGUCGAGGAUAUGGGCAAAUAAAAUAAGAACCAGAAGGCGAAUAAU [salish99_ss1_r3_048] (puzzle: Same State 1) |  |  |  | 31.6 nM | 357 nM | 555 nM
GAGUGGCAGUUAGGAUAUAUAGUGAUAAUCACAAUAGAAGGAACUGACAUGAGGAUCACCCAUGUAGGACUAAUCCAGAGAGAG [Parity 40 - Jieux - Same State NG 1] (Eterna round: R96, puzzle: Same State NG 1) | 56.9 nM | 21.7 nM | 26.8 nM |  |  | 
GCCAUCCAAUGAGGAUAUGGCACCGUUUCGGUGCCAGAAGGCAUGUCAAUUGACAUGAGGAUCACCCAUGUAUUAUGGAUGGCA [JL Fiskers NG1ss - 33 mod 2] (Eterna round: R96, puzzle: Same State NG 1) | 101 nM | 739 nM | 1390 nM |  |  | 
GGAAAGAGGUCAGGAUAUGAAUGUUUGGGACAUGAGGAUCACCCAUGUAAUAGAAGAAAUCUACAUUAGAAGGGACAAGGAAGG [AK SSNG2-V2-6] (Eterna round: R96, puzzle: Same State NG 2) | 63.5 nM | 54.5 nM | 79.3 nM |  |  | 
GGCGGAUCCACAUGAGGAUCACCCAUGUAGCGGAGACGCAAUGAGGAUAUCGAUGGGUUUCCCGUCGAGAAGGCAUAAACCGCC [JL SSNG3 3.93 mod 2] (Eterna round: R96, puzzle: Same State NG 3) | 17.8 nM | 14.9 nM | 16 nM |  |  | 
